The record followed here is patent US20240270821A1, “GIP/GLP1/GCG TRI-RECEPTOR AGONISTS AND USES THEREOF” (priority 2023, published 2024).

Common to all, as to test: cell-based or functional assay
The target in assay [1] is human glucagon receptor (human) (UniProt P47871).
In a further assay the target is hGLP-1R (Homo sapiens, UniProt P43220).
Assay [2] concerns the target T1, human GIP receptor (human) (UniProt P48546).
T1 sequence (looked up): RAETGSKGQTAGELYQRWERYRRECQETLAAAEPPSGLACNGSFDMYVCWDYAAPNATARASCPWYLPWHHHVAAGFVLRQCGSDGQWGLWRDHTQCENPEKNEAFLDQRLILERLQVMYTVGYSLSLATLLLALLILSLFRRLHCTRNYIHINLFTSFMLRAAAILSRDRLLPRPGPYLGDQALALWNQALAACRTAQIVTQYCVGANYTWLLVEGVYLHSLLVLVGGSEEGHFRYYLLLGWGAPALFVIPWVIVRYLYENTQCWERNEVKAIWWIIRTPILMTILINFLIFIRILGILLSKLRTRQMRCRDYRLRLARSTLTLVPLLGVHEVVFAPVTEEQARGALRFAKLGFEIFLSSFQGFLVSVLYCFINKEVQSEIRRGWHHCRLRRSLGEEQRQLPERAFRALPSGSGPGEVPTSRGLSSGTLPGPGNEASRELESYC

human glucagon receptor (human), sequence (P47871 26-477): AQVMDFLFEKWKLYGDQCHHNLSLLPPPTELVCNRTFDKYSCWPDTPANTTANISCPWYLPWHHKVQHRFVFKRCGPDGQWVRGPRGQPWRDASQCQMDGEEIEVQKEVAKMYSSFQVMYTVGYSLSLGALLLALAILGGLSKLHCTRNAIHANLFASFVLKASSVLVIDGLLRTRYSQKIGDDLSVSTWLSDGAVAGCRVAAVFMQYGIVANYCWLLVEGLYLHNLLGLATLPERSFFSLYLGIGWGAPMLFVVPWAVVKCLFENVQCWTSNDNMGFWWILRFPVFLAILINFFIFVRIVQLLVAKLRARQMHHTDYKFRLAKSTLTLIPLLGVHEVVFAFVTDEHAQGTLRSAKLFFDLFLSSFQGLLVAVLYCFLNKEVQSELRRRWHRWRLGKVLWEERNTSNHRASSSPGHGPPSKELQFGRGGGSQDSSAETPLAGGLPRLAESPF
hGLP-1R, sequence (P43220 24-463): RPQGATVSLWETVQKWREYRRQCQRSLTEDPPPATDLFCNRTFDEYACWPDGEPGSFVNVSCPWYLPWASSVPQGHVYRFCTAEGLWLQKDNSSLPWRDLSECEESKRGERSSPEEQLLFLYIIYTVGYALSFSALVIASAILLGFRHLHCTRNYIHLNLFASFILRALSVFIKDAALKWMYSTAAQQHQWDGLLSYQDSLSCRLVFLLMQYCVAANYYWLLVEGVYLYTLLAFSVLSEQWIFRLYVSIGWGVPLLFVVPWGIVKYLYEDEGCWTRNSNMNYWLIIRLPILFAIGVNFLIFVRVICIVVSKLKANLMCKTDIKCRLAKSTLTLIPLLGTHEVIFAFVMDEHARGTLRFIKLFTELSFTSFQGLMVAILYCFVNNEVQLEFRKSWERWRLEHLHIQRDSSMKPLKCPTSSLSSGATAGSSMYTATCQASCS

B1: Example 1178 (peptide)
chain: YXQGTXTSDXXIXLDXKAQXEFIEXLIEGGPSSGAPPPSGSE
modifications: non-natural residues; AEEA-(γGlu)2-C18 diacid on Lys; amide; synthetic construct; SITE 2: note = 2-Aminoisobutyric Acid; SITE 6: note = alpha-methyl-2-fluoro-L-phenylalanine; SITE 10: note = 3-(4-Pyridyl)-L-alanine; SITE 11: note = alpha-methyl-L-serine; SITE 13: note = alpha-methyl-leucine; SITE 16: note = L-ornithine; SITE 17: note = Lysine is chemically mo
For the molecule B1, the values for the cAMP Rel EC50 (in the presence of 1% HSA) (in assay [1]; with hGLP-1R; in assay [2]) were 270 nM, 39 nM and 0.544 nM, respectively.

B2: Example 1179 (peptide)
chain: YXQGTXTSDXXIXLDXKAQXEFIEXLIEGGPSSGEPPPSGSE
modifications: non-natural residues, C-terminal amide, acylated Lys with fatty diacid; synthetic construct; SITE 2: note = 2-Aminoisobutyric Acid; SITE 6: note = alpha-methyl-2-fluoro-L-phenylalanine; SITE 10: note = 3-(4-Pyridyl)-L-alanine; SITE 11: note = alpha-methyl-L-serine; SITE 13: note = alpha-methyl-leucine; SITE 16: note = L-ornithine; SITE 17: note = Lysine is chemically mo
For the molecule B2, the Relative cAMP EC50 was determined as 2.87 nM in assay [1], 0.652 nM with hGLP-1R and 0.0102 nM in assay [2]. Further, the cAMP Rel EC50 (in the presence of 1% HSA) amounted to 197 nM in assay [1], 37.9 nM in the assay with hGLP-1R and 0.58 nM in assay [2].

B3: Example 1177 (peptide)
chain: YXQGTXTSDXXIXLDXKAQXEFIEXLIEGGPSSGEPPPSGE
modifications: non-natural residues; Lys acylated C18 diacid via AEEA-γGlu2; C-term amide; synthetic construct; SITE 2: note = 2-Aminoisobutyric Acid; SITE 6: note = alpha-methyl-2-fluoro-L-phenylalanine; SITE 10: note = 3-(4-Pyridyl)-L-alanine; SITE 11: note = alpha-methyl-L-serine; SITE 13: note = alpha-methyl-leucine; SITE 16: note = L-ornithine; SITE 17: note = Lysine is chemically mo
Regarding B3, the Relative cAMP EC50 stood at 4.23 nM in assay [1], 0.681 nM with hGLP-1R and 0.0114 nM in assay [2]. For the same molecule, the cAMP Rel EC50 (in the presence of 1% HSA) in assay [1] came out at 156 nM; in the assay with hGLP-1R, 43.6 nM; in assay [2], 0.544 nM.

B4: Example 1195 (peptide)
chain: YXQGTXTSDXXIXLDXKAQXEFIEXLIEGGPPSXXPPPXGE
modifications: non-natural residues; acylated Lys; C-terminal amide; synthetic construct; SITE 2: note = 2-Aminoisobutyric Acid; SITE 6: note = alpha-methyl-2-fluoro-L-phenylalanine; SITE 10: note = 3-(4-Pyridyl)-L-alanine; SITE 11: note = alpha-methyl-L-serine; SITE 13: note = alpha-methyl-leucine; SITE 16: note = L-ornithine; SITE 17: note = Lysine is chemically mo
For the molecule B4, the Relative cAMP EC50 in assay [1] stood at 1.74 nM; in the assay with hGLP-1R, 0.367 nM; in assay [2] it was 0.00708 nM. In addition, the cAMP Rel EC50 (in the presence of 1% HSA) in assay [1] is 242 nM; with hGLP-1R it was 44.2 nM; in assay [2], 0.637 nM.

B5: Example 1193 (peptide)
chain: YXQGTXTSDXXIXLDXKAQXEFIEXLIEGGPPSXEPPPXGE
modifications: non-natural residues (Aib, αMeF(2F), 4Pal, Orn, Me4Pal); lipidated Lys; C-amide; synthetic construct; SITE 2: note = 2-Aminoisobutyric Acid; SITE 6: note = alpha-methyl-2-fluoro-L-phenylalanine; SITE 10: note = 3-(4-Pyridyl)-L-alanine; SITE 11: note = alpha-methyl-L-serine; SITE 13: note = alpha-methyl-leucine; SITE 16: note = L-ornithine; SITE 17: note = Lysine is chemically mo
For the molecule B5, the Relative cAMP EC50 in assay [1] was found to be 1.56 nM; in the assay with hGLP-1R, 0.544 nM; in assay [2], 0.00897 nM. Besides, the cAMP Rel EC50 (in the presence of 1% HSA) in assay [1] was 202 nM; with hGLP-1R, 66.2 nM; in assay [2], 0.803 nM.

B6: Example 1196 (peptide)
chain: YXQGTXTSDXXIXLDXKAQXEFIEXLIEGGPPSXXPPPXSE
modifications: non-natural residues; lipidated Lys AEEA-γGlu-C18 diacid; C-term amide; synthetic construct; SITE 2: note = 2-Aminoisobutyric Acid; SITE 6: note = alpha-methyl-2-fluoro-L-phenylalanine; SITE 10: note = 3-(4-Pyridyl)-L-alanine; SITE 11: note = alpha-methyl-L-serine; SITE 13: note = alpha-methyl-leucine; SITE 16: note = L-ornithine; SITE 17: note = Lysine is chemically mo
Take B6: the values for the Relative cAMP EC50 (in assay [1]; with hGLP-1R; in assay [2]) were 1.9 nM, 0.418 nM and 0.00756 nM, respectively. In addition, the cAMP Rel EC50 (in the presence of 1% HSA) in assay [1] is 257 nM; in the assay with hGLP-1R, 45.4 nM; in assay [2], 0.605 nM.

B7: Example 1190 (peptide)
chain: YXQGTXTSDXXIXLDXKAQXEFIEXLIEGGPPSXEPPPEGE
modifications: non-natural residues, acylated Lys, C-terminal amide; synthetic construct; SITE 2: note = 2-Aminoisobutyric Acid; SITE 6: note = alpha-methyl-2-fluoro-L-phenylalanine; SITE 10: note = 3-(4-Pyridyl)-L-alanine; SITE 11: note = alpha-methyl-L-serine; SITE 13: note = alpha-methyl-leucine; SITE 16: note = L-ornithine; SITE 17: note = Lysine is chemically mo
For B7, the Relative cAMP EC50 in assay [1] is 1.68 nM; with hGLP-1R it was 0.765 nM; in assay [2], 0.0109 nM. In addition, the values for the cAMP Rel EC50 (in the presence of 1% HSA) (in assay [1]; with hGLP-1R; in assay [2]) were 192 nM, 77.4 nM and 0.954 nM, respectively.

B8: Example 1194 (peptide)
chain: YXQGTXTSDXXIXLDXKAQXEFIEXLIEGGPPSXXPPPEGE
modifications: non-natural residues; lipidated Lys; C-terminal amide; synthetic construct; SITE 2: note = 2-Aminoisobutyric Acid; SITE 6: note = alpha-methyl-2-fluoro-L-phenylalanine; SITE 10: note = 3-(4-Pyridyl)-L-alanine; SITE 11: note = alpha-methyl-L-serine; SITE 13: note = alpha-methyl-leucine; SITE 16: note = L-ornithine; SITE 17: note = Lysine is chemically mo
On to B8, for which the Relative cAMP EC50 in assay [1] worked out at 2.02 nM; with hGLP-1R, 0.51 nM; in assay [2] it was 0.00725 nM. Further, the cAMP Rel EC50 (in the presence of 1% HSA) in assay [1] came to 215 nM; with hGLP-1R it was 57.4 nM; in assay [2], 0.759 nM.

B9: Example 1189 (peptide)
chain: YXQGTXTSDXXIXLDXKAQXEFIEXLIEGGPPSXXPPPXGS
modifications: non-natural residues, C-terminal amide, acylated Lys with fatty diacid; synthetic construct; SITE 2: note = 2-Aminoisobutyric Acid; SITE 6: note = alpha-methyl-2-fluoro-L-phenylalanine; SITE 10: note = 3-(4-Pyridyl)-L-alanine; SITE 11: note = alpha-methyl-L-serine; SITE 13: note = alpha-methyl-leucine; SITE 16: note = L-ornithine; SITE 17: note = Lysine is chemically mo
For B9, the Relative cAMP EC50 in assay [1] is 1.59 nM; in the assay with hGLP-1R, 0.292 nM; in assay [2], 0.00597 nM. Further, the cAMP Rel EC50 (in the presence of 1% HSA) came out at 248 nM in assay [1], 45.4 nM with hGLP-1R and 0.584 nM in assay [2].

B10: Example 1191 (peptide)
chain: YXQGTXTSDXXIXLDXKAQXEFIEXLIEGGPPSGEPPPEGE
modifications: non-natural residues; lipidated Lys AEEA-γGlu-C18 diacid; C-term amide; synthetic construct; SITE 2: note = 2-Aminoisobutyric Acid; SITE 6: note = alpha-methyl-2-fluoro-L-phenylalanine; SITE 10: note = 3-(4-Pyridyl)-L-alanine; SITE 11: note = alpha-methyl-L-serine; SITE 13: note = alpha-methyl-leucine; SITE 16: note = L-ornithine; SITE 17: note = Lysine is chemically mo
In the case of B10, the figures for the Relative cAMP EC50 (in assay [1]; with hGLP-1R; in assay [2]) were 3.06 nM, 0.945 nM and 0.00992 nM, respectively. The cAMP Rel EC50 (in the presence of 1% HSA) came to 243 nM in assay [1], 82.3 nM with hGLP-1R and 0.931 nM in assay [2].
